{"source": "patent US20250051821", "target": "T1, IFF05588", "T1 chain": "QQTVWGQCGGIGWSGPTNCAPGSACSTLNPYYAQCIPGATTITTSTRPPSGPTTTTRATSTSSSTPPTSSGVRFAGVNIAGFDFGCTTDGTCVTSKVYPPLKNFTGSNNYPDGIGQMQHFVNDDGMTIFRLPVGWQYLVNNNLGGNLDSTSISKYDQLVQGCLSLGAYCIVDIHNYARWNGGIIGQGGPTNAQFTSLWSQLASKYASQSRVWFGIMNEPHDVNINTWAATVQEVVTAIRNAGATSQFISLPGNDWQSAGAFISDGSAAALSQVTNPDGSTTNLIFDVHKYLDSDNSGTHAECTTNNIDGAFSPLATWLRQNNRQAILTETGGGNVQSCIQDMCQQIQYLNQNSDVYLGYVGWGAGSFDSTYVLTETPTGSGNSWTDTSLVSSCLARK"}
{"protein": "IFF21333 (protein) RLDKPIINPTFPGGGLDSLAQGLLDHLAPTQSTHDNWGAGYIPEDCKNLAKSNGFSPFDITPFNIHYSDCNDVWIFCRHKDSPLSQIDMIDLFGRMPVHMREYIRHVIALPGNKSAGSSGDNIQMNGAVGITVFVHETGHSLDSHGFDPKYGVPFSNSKTWLDNYNMDTAVCDSYAQSSQQENLAQETVVGLYDKVVPGGVGNIQPNWKAIFHQYATVQGYLGDILTPGGTCRHRLANSKPVPMGDSAKFRRDLGPAPDVSLSSDVIEIESIPMGSSIRITEFDEAGNPIGSKNVSLVM", "values": [{"measurement": "Relative late peak area (centered, scaled, averaged over 5, 10 and 15 min)", "result": 0.26}, {"measurement": "Relative late peak area (centered, scaled, averaged over doses, 24 h; sample diluted 2-fold)", "result": 0.69}, {"measurement": "Relative late peak area (reverse phase chromatography, 24 h)", "result": 0.59}]}
{"protein": "IFF21332 (protein) ALNKPIINPQFPNGGLGSLGPGLMQHLQPAKRTWDKWGPGWIPEDCKNLAKSNNFSPFDITPFNIHYEDCPDSWVFCRHKDSPLSETAMIDMFGRMPVKMRSYIRHIIALPGTRSAGSAGDNIQMNGDCEITVFVHETGHSLDSHAFDPKYGAPFSNSKVWLDNYNQDSAVCDGYAQSSQQENLAQETVVGLFDKVVPGGVGTIQPNWKAIFHQYATVQGYLGDQILPGGTCSHRLTNSKPVPMGDSKKSRRGLGPAPDVSLSAHVTEIEPIAMGDSIVLTQYNDGGDAISKREVTLN", "values": [{"measurement": "Relative late peak area (centered, scaled, averaged over 5, 10 and 15 min)", "result": 0.3}, {"measurement": "Relative late peak area (centered, scaled, averaged over doses, 24 h; sample diluted 2-fold)", "result": 0.8}, {"measurement": "Relative late peak area (reverse phase chromatography, 24 h)", "result": 0.65}]}
{"protein": "IFF21348 (protein) TLNKPVIQPNFPGGGLASLGPGLLNNLAITSSTSDVWGAGWIPADCKSLVQGAGLSPFDVIPFNIHLSDCSQTWTFCRHKNSPLSQTDIINLFARVPVRMRDFIRHFVFIPGATSAGSNGDNTLMVGNVDITVFLHEIGHSLDSHAFDPSYGVPFSTGNVWVSNYNLDSAVTDSYAQTSQQENFAQETVVSVYDKVVPGGIGTIQPNWQAIFHQYATLEGYIGNTIIPGGTCVNRLTDSQPVPMGNSAKFRRTMGPKPTVSLSPDVKEIKAIPMSDSITMTSFDEFGNVNGTYVIQL", "values": [{"measurement": "Relative late peak area (centered, scaled, averaged over 5, 10 and 15 min)", "result": 1.4}, {"measurement": "Relative late peak area (centered, scaled, averaged over doses, 24 h; sample diluted 10-fold)", "result": 0.68}]}
{"protein": "IFF21351 (protein) ALNKPVIQPNFPGNGLASLGQGIMQHLTPTQSTWDDWGAGWIPQDCKSIVQGAGFSPNDIIPFNIHYTDCGQTWTFCRHKNSPLSEINIIDIFGRLPVRMRQFVRHLVFVPGNKSAGSNGDNILMVGPVDVTVFIHEIGHSLDSHAFDPSYGVPFSTGNVWVSNYNLDSAVPDPYAQSSQQENFAQHTVVSIFDKVVPGGIGTIQPNWQAIFHQYATLEGYIGDTIIPGGTCTHRLTDSPPVTMASKRRGLGPKPKVALSPEVEEIESIPMKSTFKMTSFDEAGKPSGNYVINL", "values": [{"measurement": "Relative late peak area (centered, scaled, averaged over 5, 10 and 15 min)", "result": -0.57}, {"measurement": "Relative late peak area (centered, scaled, averaged over doses, 24 h; sample diluted 1-fold)", "result": 0.66}]}
{"protein": "IFF21350 (protein) NLNKPVIQPNFPGNGLASLGQGILDHLAPTQSTWDDWGAGWIPQDCKSLAQGAGLSPNDIIPFNIHYADCAQTWTFCRHKNSPLSEVNIIDLFGRLPVRMRQFVRHLVFIPGNKSAGSNGDNVLMVGPVDITVFAHEIGHSLDSHAFDPSYGVPFSTGNVWVSNYNLDSAVPDPYAQSSQQENFAQHTVISIYDKAVPGGIGTIQPNWQAIFHQYATLEGYIGDIIIPGGTCTHRLTDSPPVTMASKRRALGPKPKVALSPEVEEIEAIPMKNTITMTSFDEAGKPNGSYVINL", "values": [{"measurement": "Relative late peak area (centered, scaled, averaged over 5, 10 and 15 min)", "result": 1.55}, {"measurement": "Relative late peak area (centered, scaled, averaged over doses, 24 h; sample diluted 10-fold)", "result": 1.06}, {"measurement": "Relative late peak area (reverse phase chromatography, 24 h)", "result": 0.61}]}
{"protein": "IFF21360 (protein) RLDKPVIKPPFPNGGGLGSLGPDLMSSLPIAAHTTSDWDSDHLPRDCKRLAQSAGFSPLDVDAFNIRFDDCKQQPWVFCRHKDAPLSKSNMTELFGRLPVRMRQYIRHIIALPGQRSAGSAGDNIQMNGDCEITVFIHETGHSLDSHAFDPKHGVPFSNSPVWKDAYDKDTAVTDDYAQTSQQENFAQETVVAVYDKNVKGGGIGKIQPNAQAIRNAYTTLEKYIGDIIIPGGECTHRLENSPAVPKVDSARTRLVAKSEPVGEGLTRIEPIPMGPITLARY", "values": [{"measurement": "Relative late peak area (centered, scaled, averaged over 5, 10 and 15 min)", "result": -0.58}, {"measurement": "Relative late peak area (centered, scaled, averaged over doses, 24 h; sample diluted 1-fold)", "result": 0.62}, {"measurement": "Relative late peak area (reverse phase chromatography, 24 h)", "result": 0.66}]}
{"protein": "IFF21343 (protein) NLDKPVIQPNFPGNGLASLGQGLMDHLAPTHSTWDDWGAGWIPQDCKSMAQGAGFSANDIIPFNIHYDDCAQSWTFCRHKNSPLSELQILDIFGRLPVRMRSFVRHLVFVPGNKSAGSNGDNVLMVGAVDVTVFAHEIGHSLDSHAFDPSYGVPFSTGSVWTSNYNLDSAVPDPYAQTSQQENFAQETVVSLYDKVVPGGIGTIQPNWKAIFHQYATLQGYIGNVIIPGGTCTHRLTDSPPVTMSSAKLRRGLGPKPNVSLSPKVKEIESIPMESSITMTSFDEHGKPNGTYVVHLK", "values": [{"measurement": "Relative late peak area (centered, scaled, averaged over 5, 10 and 15 min)", "result": 0.33}, {"measurement": "Relative late peak area (centered, scaled, averaged over doses, 24 h; sample diluted 2-fold)", "result": 0.8}]}
{"protein": "IFF21379 (protein) QLDKPALTSNLDYLLEGNTNNLPRNGGPYWGKWADGLMPADCKSIAESQGLNPTDFEVWDIFYNDCQDGWSFCRHKDSSDSFETLVETFGRVPVRMRSWVRHILTIPGPNWAFNSNGNIALSGTTSSNLDVALHETAHSLDLLGAYGNGALSSMQEWLNAYNRDSHVPDEYARSNQVENVAQNTVVAIYDKVVPGGFPGIQPNYQRIQNQYTLVQAKAGNQILPGGTCDRHLENSDTVPMSGLSLAYKLDSEKSRGVWHDSAFKGTYMNIVKEFTPFNTQEFHH", "values": [{"measurement": "Relative late peak area (centered, scaled, averaged over 5, 10 and 15 min)", "result": -0.02}, {"measurement": "Relative late peak area (centered, scaled, averaged over doses, 24 h; sample diluted 2-fold)", "result": 0.75}, {"measurement": "Relative late peak area (reverse phase chromatography, 24 h)", "result": 0.45}]}
{"protein": "IFF21359 (protein) TLDKPVIKPPFPNGGLGSLGPDLMSSLPIAAHTTTDWDADHLPRDCKTLAQGAGFSPLDVSAFDIHYDDCKAQPWVFCRHKDSPLSKTDMTELFGRLPVRMRQFIRHIIALPGQRSAGSAGDNIQMNGDCEITVFIHETGHSLDSHAFDPKLGVPFSNGKAWTDAYHKDTAVTDDYGRTSQQENFAQETVVSVYDKNVEGGIGKIQPNAQAIRNAYTTLETYIGNIIIPGGECTHRLENSPSVPKADSARTRLVARAEPVGEGLTRIEPVPFGPILSVRY", "values": [{"measurement": "Relative late peak area (centered, scaled, averaged over 5, 10 and 15 min)", "result": 1.3}, {"measurement": "Relative late peak area (centered, scaled, averaged over doses, 24 h; sample diluted 10-fold)", "result": 0.61}, {"measurement": "Relative late peak area (reverse phase chromatography, 24 h)", "result": 0.68}]}
{"protein": "IFF21342 (protein) NLNKPVITPNFPGNGLASLGQGLMDHLAPTHSTWDDWGAGWIPADCKSMVQGAGFSPNDIIPFNIHYDDCAQSWTFCRHKNSPLSEIQILDIFGRLPVRMRQFVRHLVFVPGNKSAGSNGDNVLMVGDVDVTVFAHEIGHSLDSHAFDPSYGVPFSTGNVWVSNYNLDSAVPDPYAQSSQQENFAQETVVSLYDKVVPGGIGTIQPNWQAIFHQYATLEGYIGNVIIPGGTCTHRLTDSPPVTMSGSKKSRRALGPKPKVSLSPKVKEIEAIPMESSITMTSFDEHGRPNGTYVINL", "values": [{"measurement": "Relative late peak area (centered, scaled, averaged over 5, 10 and 15 min)", "result": 0.12}, {"measurement": "Relative late peak area (centered, scaled, averaged over doses, 24 h; sample diluted 2-fold)", "result": 0.73}]}
{"protein": "IFF21341 (protein) NLNKPVITPNFPGNGLASLGPGLMNNLAPTHSTWDDWGAGWIPSDCKSMVQGAGFSPNDIIPFNIHYDDCAQSWTFCRHKNSPLSEIQILDIFGRLPVRMRQFVRHLVFVPGNKSAGSNGDNVLMVGDVDVTVFAHEIGHSLDSHAFDPSYGVPFSTGNVWVSNYNLDSAVPDPYAQSSQQENFAQETVVSLYDKVVPGGIGTIQPNWQAIFHQYATLEGYIGNVIIPGGTCTHRLTDSAPVTMSGSKKSRRALGPKPKVSLSPKVKEIEAIPMESSITMTSFDEHGKPNGTYVVHL", "values": [{"measurement": "Relative late peak area (centered, scaled, averaged over 5, 10 and 15 min)", "result": 1.03}, {"measurement": "Relative late peak area (centered, scaled, averaged over doses, 24 h; sample diluted 10-fold)", "result": 0.62}]}
{"protein": "IFF21338 (protein) NLNKPVITPNFPGNGLASLGPGLMNNLAPTHSTWDDWGAGWIPSDCKSMVQGAGFSPNDIIPFNIHYDDCAQTWTFCRHKNSPLSEIQILDIFGRLPVRMRQFVRHLVFVPGNKSAGSNGDNVLMVGDVDVTVFAHEIGHSLDSHAFDPSYGVPFSTGNVWVSNYNLDSAVPDPYAQSSQQENFAQQTVVSLYDKVVPGGIGTIQPNWQAIFHQYATLEGYIGNVIIPGGTCTHRLTDSAPVTMSGSKKSRRALGPKPKVSLSPEVKEIEAIPMESSITMTSFDEHGKPNGTYVIHL", "values": [{"measurement": "Relative late peak area (centered, scaled, averaged over 5, 10 and 15 min)", "result": 1.11}, {"measurement": "Relative late peak area (centered, scaled, averaged over doses, 24 h; sample diluted 10-fold)", "result": 0.59}, {"measurement": "Relative late peak area (reverse phase chromatography, 24 h)", "result": 0.6}]}
{"protein": "IFF21334 (protein) ILDKPVIQPNFPGNGLASLGQGLMDNLSPTHSTWDDWGAGWIPQDCKSLVEGAGFSASDVIPFNIHYDDCAQTWTFCRHKDSPLSEITILDIFGRLPVRMRSFVRHLVFIPGNKSAGSSGDNVLMVGAVDVTVFAHEIGHSLDSHAFDPSYGVPFSTGNVWISNYNLDSAVTDPYAQTSQQENFAQETVVSLYDKVVPGGIGTIQPNWQAIYHQYATLEGYIGDVIIPGGTCTHRLTDSPPVQMSSSSKLRRALGPKPHVALSPEVEEIEAIPMKSSITMTSFDAAGKPNGTYVINL", "values": [{"measurement": "Relative late peak area (centered, scaled, averaged over 5, 10 and 15 min)", "result": 1.38}, {"measurement": "Relative late peak area (centered, scaled, averaged over doses, 24 h; sample diluted 10-fold)", "result": 0.97}, {"measurement": "Relative late peak area (reverse phase chromatography, 24 h)", "result": 0.65}]}
{"protein": "IFF21354 (protein) RLDKPVIKPPFPNGGLGSLGPDLMSSLKVASHTTDDWDKNHLPRDCKSLAQNAGFSPLDVSAFNIHYDDCKSQPWVFCRHKDSPLSKKDMTELFGRMPVRMRQFIRHIIALPGQRSAGSSGDNIQMNGDVEITVFIHETGHSLDSHAFDPKLGAPFSNGKAWTDAYNKDSAVTDDYAQTSQQENFAQETVVSVYDKNVKGGIGKIQPNAQAIRNAYTTLEKYIGNIIIPGGVCTHRLENSPSVPKADSARTRLVPKSEPVGEGLTRIEPIAMGPITPASY", "values": [{"measurement": "Relative late peak area (centered, scaled, averaged over 5, 10 and 15 min)", "result": 1.34}, {"measurement": "Relative late peak area (centered, scaled, averaged over doses, 24 h; sample diluted 10-fold)", "result": 0.87}, {"measurement": "Relative late peak area (reverse phase chromatography, 24 h)", "result": 0.67}]}
